The values below come from IntAct's records for PubMed 17235283.

First the molecules themselves.
B1: Lymphocyte cytosolic protein 2 (Homo sapiens), Q13094 (parent)
chain: MALRNVPFRSEVLGWDPDSLADYFKKLNYKDCEKAVKKYHIDGARFLNLTENDIQKFPKLRVPILSKLSQEINKNEERRSIFTRKPQVPRFPEETESHEEDNGGWSSFEEDDYESPNDDQDGEDDGDYESPNEEEEAPVEDDADYEPPPSNDEEALQNSILPAKPFPNSNSMYIDRPPSGKTPQQPPVPPQRPMAALPPPPAGRNHSPLPPPQTNHEEPSRSRNHKTAKLPAPSIDRSTKPPLDRSLAPFDREPFTLGKKPPFSDKPSIPAGRSLGEHLPKIQKPPLPPTTERHERSSPLPGKKPPVPKHGWGPDRRENDEDDVHQRPLPQPALLPMSSNTFPSRSTKPSPMNPLPSSHMPGAFSESNSSFPQSASLPPYFSQGPSNRPPIRAEGRNFPLPLPNKPRPPSPAEEENSLNEEWYVSYITRPEAEAALRKINQDGTFLVRDSSKKTTTNPYVLMVLYKDKVYNIQIRYQKESQVYLLGTGLRGKEDFLSVSDIIDYFRKMPLLLIDGKNRGSRYQCTLTHAAGYP

Variants of B1 are the subject of the first assay. To be noted: with stam1_human STAM.
Turning to MALRNVPFRSEVLGWDPDSLADYFKKLNYKDCEKAVKKYHIDGARFLNLTENDIQKFPKLRVPILSKLSQEINKNEERRSIFTRKPQVPRFPEETESHEEDNGGWSSFEEDDYESPNDDQDGEDDGDYESPNEEEEAPVEDDADYEPPPSNDEEALQNSILPAKPFPNSNSMYIDRPPSGKTPQQPPVPPQRPMAALPPPPAGRNHSPLPPPQTNHEEPSRSRNHKTAKLPAPPIDRSTKPPLDRSLAPFDREPFTLGKKPPFSDKPSIPAGRSLGEHLPKIQKPPLPPTTERHERSSPLPGKKPPVPKHGWGPDRRENDEDDVHQRPLPQPALLPMSSNTFPSRSTKPSPMNPLPSSHMPGAFSESNSSFPQSASLPPYFSQGPSNRPPIRAEGRNFPLPLPNKPRPPSPAEEENSLNEEWYVSYITRPEAEAALRKINQDGTFLVRDSSKKTTTNPYVLMVLYKDKVYNIQIRYQKESQVYLLGTGLRGKEDFLSVSDIIDYFRKMPLLLIDGKNRGSRYQCTLTHAAGYP [S234P], the “effect of a mutation on the interaction” value was “decreasing interaction”.

Variants of B1 are the subject of a further assay. The conditions noted are these: with stam2_human STAM2, O75886.
Consider MALRNVPFRSEVLGWDPDSLADYFKKLNYKDCEKAVKKYHIDGARFLNLTENDIQKFPKLRVPILSKLSQEINKNEERRSIFTRKPQVPRFPEETESHEEDNGGWSSFEEDDYESPNDDQDGEDDGDYESPNEEEEAPVEDDADYEPPPSNDEEALQNSILPAKPFPNSNSMYIDRPPSGKTPQQPPVPPQRPMAALPPPPAGRNHSPLPPPQTNHEEPSRSRNHKTAKLPAPPIDRSTKPPLDRSLAPFDREPFTLGKKPPFSDKPSIPAGRSLGEHLPKIQKPPLPPTTERHERSSPLPGKKPPVPKHGWGPDRRENDEDDVHQRPLPQPALLPMSSNTFPSRSTKPSPMNPLPSSHMPGAFSESNSSFPQSASLPPYFSQGPSNRPPIRAEGRNFPLPLPNKPRPPSPAEEENSLNEEWYVSYITRPEAEAALRKINQDGTFLVRDSSKKTTTNPYVLMVLYKDKVYNIQIRYQKESQVYLLGTGLRGKEDFLSVSDIIDYFRKMPLLLIDGKNRGSRYQCTLTHAAGYP [S234P], for which the “effect of a mutation on the interaction” value is “decreasing interaction”.

Variants of B1 are the subject of another assay. To be noted: with grb2_human GRB2, P62993.
Sequence of grb2_human GRB2, P62993 (P62993 whole entry, looked up): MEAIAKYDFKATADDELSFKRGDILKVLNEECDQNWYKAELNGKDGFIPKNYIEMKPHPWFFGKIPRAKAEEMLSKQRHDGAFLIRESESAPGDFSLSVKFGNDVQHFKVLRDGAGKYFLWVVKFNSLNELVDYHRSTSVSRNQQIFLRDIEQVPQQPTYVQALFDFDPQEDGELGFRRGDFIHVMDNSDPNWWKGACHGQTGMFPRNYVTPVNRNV
On to MALRNVPFRSEVLGWDPDSLADYFKKLNYKDCEKAVKKYHIDGARFLNLTENDIQKFPKLRVPILSKLSQEINKNEERRSIFTRKPQVPRFPEETESHEEDNGGWSSFEEDDYESPNDDQDGEDDGDYESPNEEEEAPVEDDADYEPPPSNDEEALQNSILPAKPFPNSNSMYIDRPPSGKTPQQPPVPPQRPMAALPPPPAGRNHSPLPPPQTNHEEPSRSRNHKTAKLPAPSIDRRTKPPLDRSLAPFDREPFTLGKKPPFSDKPSIPAGRSLGEHLPKIQKPPLPPTTERHERSSPLPGKKPPVPKHGWGPDRRENDEDDVHQRPLPQPALLPMSSNTFPSRSTKPSPMNPLPSSHMPGAFSESNSSFPQSASLPPYFSQGPSNRPPIRAEGRNFPLPLPNKPRPPSPAEEENSLNEEWYVSYITRPEAEAALRKINQDGTFLVRDSSKKTTTNPYVLMVLYKDKVYNIQIRYQKESQVYLLGTGLRGKEDFLSVSDIIDYFRKMPLLLIDGKNRGSRYQCTLTHAAGYP [S238R], for which the “effect of a mutation on the interaction” value is reported as “decreasing interaction”.

Variants of B1 are the subject of another assay. The conditions noted are these: with stam1_human STAM. This is another data set of the same source.
On to MALRNVPFRSEVLGWDPDSLADYFKKLNYKDCEKAVKKYHIDGARFLNLTENDIQKFPKLRVPILSKLSQEINKNEERRSIFTRKPQVPRFPEETESHEEDNGGWSSFEEDDYESPNDDQDGEDDGDYESPNEEEEAPVEDDADYEPPPSNDEEALQNSILPAKPFPNSNSMYIDRPPSGKTPQQPPVPPQRPMAALPPPPAGRNHSPLPPPQTNHEEPSRSRNHKTAKLPAPSIDRRTKPPLDRSLAPFDREPFTLGKKPPFSDKPSIPAGRSLGEHLPKIQKPPLPPTTERHERSSPLPGKKPPVPKHGWGPDRRENDEDDVHQRPLPQPALLPMSSNTFPSRSTKPSPMNPLPSSHMPGAFSESNSSFPQSASLPPYFSQGPSNRPPIRAEGRNFPLPLPNKPRPPSPAEEENSLNEEWYVSYITRPEAEAALRKINQDGTFLVRDSSKKTTTNPYVLMVLYKDKVYNIQIRYQKESQVYLLGTGLRGKEDFLSVSDIIDYFRKMPLLLIDGKNRGSRYQCTLTHAAGYP [S238R], for which the “effect of a mutation on the interaction” value is reported as “decreasing interaction”.

In another assay the parent is B1. The conditions noted are these: with stam2_human STAM2, O75886. This is another data set of the same source.
For the variant MALRNVPFRSEVLGWDPDSLADYFKKLNYKDCEKAVKKYHIDGARFLNLTENDIQKFPKLRVPILSKLSQEINKNEERRSIFTRKPQVPRFPEETESHEEDNGGWSSFEEDDYESPNDDQDGEDDGDYESPNEEEEAPVEDDADYEPPPSNDEEALQNSILPAKPFPNSNSMYIDRPPSGKTPQQPPVPPQRPMAALPPPPAGRNHSPLPPPQTNHEEPSRSRNHKTAKLPAPSIDRRTKPPLDRSLAPFDREPFTLGKKPPFSDKPSIPAGRSLGEHLPKIQKPPLPPTTERHERSSPLPGKKPPVPKHGWGPDRRENDEDDVHQRPLPQPALLPMSSNTFPSRSTKPSPMNPLPSSHMPGAFSESNSSFPQSASLPPYFSQGPSNRPPIRAEGRNFPLPLPNKPRPPSPAEEENSLNEEWYVSYITRPEAEAALRKINQDGTFLVRDSSKKTTTNPYVLMVLYKDKVYNIQIRYQKESQVYLLGTGLRGKEDFLSVSDIIDYFRKMPLLLIDGKNRGSRYQCTLTHAAGYP [S238R], the “effect of a mutation on the interaction” value is given as “decreasing interaction”.

In a further assay the parent is B1. To be noted: with grb2_human GRB2, P62993. This is another data set of the same source.
Consider MALRNVPFRSEVLGWDPDSLADYFKKLNYKDCEKAVKKYHIDGARFLNLTENDIQKFPKLRVPILSKLSQEINKNEERRSIFTRKPQVPRFPEETESHEEDNGGWSSFEEDDYESPNDDQDGEDDGDYESPNEEEEAPVEDDADYEPPPSNDEEALQNSILPAKPFPNSNSMYIDRPPSGKTPQQPPVPPQRPMAALPPPPAGRNHSPLPPPQTNHEEPSRSRNHKTAKLPAPSIDRSPKPPLDRSLAPFDREPFTLGKKPPFSDKPSIPAGRSLGEHLPKIQKPPLPPTTERHERSSPLPGKKPPVPKHGWGPDRRENDEDDVHQRPLPQPALLPMSSNTFPSRSTKPSPMNPLPSSHMPGAFSESNSSFPQSASLPPYFSQGPSNRPPIRAEGRNFPLPLPNKPRPPSPAEEENSLNEEWYVSYITRPEAEAALRKINQDGTFLVRDSSKKTTTNPYVLMVLYKDKVYNIQIRYQKESQVYLLGTGLRGKEDFLSVSDIIDYFRKMPLLLIDGKNRGSRYQCTLTHAAGYP [T239P], for which the “effect of a mutation on the interaction” value is on record as “disrupting interaction”.

The variants in the next assay derive from B1. The conditions noted are these: with stam1_human STAM. This is another data set of the same source.
On to MALRNVPFRSEVLGWDPDSLADYFKKLNYKDCEKAVKKYHIDGARFLNLTENDIQKFPKLRVPILSKLSQEINKNEERRSIFTRKPQVPRFPEETESHEEDNGGWSSFEEDDYESPNDDQDGEDDGDYESPNEEEEAPVEDDADYEPPPSNDEEALQNSILPAKPFPNSNSMYIDRPPSGKTPQQPPVPPQRPMAALPPPPAGRNHSPLPPPQTNHEEPSRSRNHKTAKLPAPSIDRSPKPPLDRSLAPFDREPFTLGKKPPFSDKPSIPAGRSLGEHLPKIQKPPLPPTTERHERSSPLPGKKPPVPKHGWGPDRRENDEDDVHQRPLPQPALLPMSSNTFPSRSTKPSPMNPLPSSHMPGAFSESNSSFPQSASLPPYFSQGPSNRPPIRAEGRNFPLPLPNKPRPPSPAEEENSLNEEWYVSYITRPEAEAALRKINQDGTFLVRDSSKKTTTNPYVLMVLYKDKVYNIQIRYQKESQVYLLGTGLRGKEDFLSVSDIIDYFRKMPLLLIDGKNRGSRYQCTLTHAAGYP [T239P], for which the “effect of a mutation on the interaction” value is recorded as “disrupting interaction”.

The variants in another assay derive from B1. The conditions noted are these: with stam2_human STAM2, O75886. The source holds these as a separate data set.
Regarding MALRNVPFRSEVLGWDPDSLADYFKKLNYKDCEKAVKKYHIDGARFLNLTENDIQKFPKLRVPILSKLSQEINKNEERRSIFTRKPQVPRFPEETESHEEDNGGWSSFEEDDYESPNDDQDGEDDGDYESPNEEEEAPVEDDADYEPPPSNDEEALQNSILPAKPFPNSNSMYIDRPPSGKTPQQPPVPPQRPMAALPPPPAGRNHSPLPPPQTNHEEPSRSRNHKTAKLPAPSIDRSPKPPLDRSLAPFDREPFTLGKKPPFSDKPSIPAGRSLGEHLPKIQKPPLPPTTERHERSSPLPGKKPPVPKHGWGPDRRENDEDDVHQRPLPQPALLPMSSNTFPSRSTKPSPMNPLPSSHMPGAFSESNSSFPQSASLPPYFSQGPSNRPPIRAEGRNFPLPLPNKPRPPSPAEEENSLNEEWYVSYITRPEAEAALRKINQDGTFLVRDSSKKTTTNPYVLMVLYKDKVYNIQIRYQKESQVYLLGTGLRGKEDFLSVSDIIDYFRKMPLLLIDGKNRGSRYQCTLTHAAGYP [T239P], the “effect of a mutation on the interaction” value is given as “disrupting interaction”.
